Results published in paper PMC2629732.

Assays:
Assay in all cases: EMSA
[1] = target: T1, TAF3 (UniProt Q5HZG4 1-932)
T1 sequence: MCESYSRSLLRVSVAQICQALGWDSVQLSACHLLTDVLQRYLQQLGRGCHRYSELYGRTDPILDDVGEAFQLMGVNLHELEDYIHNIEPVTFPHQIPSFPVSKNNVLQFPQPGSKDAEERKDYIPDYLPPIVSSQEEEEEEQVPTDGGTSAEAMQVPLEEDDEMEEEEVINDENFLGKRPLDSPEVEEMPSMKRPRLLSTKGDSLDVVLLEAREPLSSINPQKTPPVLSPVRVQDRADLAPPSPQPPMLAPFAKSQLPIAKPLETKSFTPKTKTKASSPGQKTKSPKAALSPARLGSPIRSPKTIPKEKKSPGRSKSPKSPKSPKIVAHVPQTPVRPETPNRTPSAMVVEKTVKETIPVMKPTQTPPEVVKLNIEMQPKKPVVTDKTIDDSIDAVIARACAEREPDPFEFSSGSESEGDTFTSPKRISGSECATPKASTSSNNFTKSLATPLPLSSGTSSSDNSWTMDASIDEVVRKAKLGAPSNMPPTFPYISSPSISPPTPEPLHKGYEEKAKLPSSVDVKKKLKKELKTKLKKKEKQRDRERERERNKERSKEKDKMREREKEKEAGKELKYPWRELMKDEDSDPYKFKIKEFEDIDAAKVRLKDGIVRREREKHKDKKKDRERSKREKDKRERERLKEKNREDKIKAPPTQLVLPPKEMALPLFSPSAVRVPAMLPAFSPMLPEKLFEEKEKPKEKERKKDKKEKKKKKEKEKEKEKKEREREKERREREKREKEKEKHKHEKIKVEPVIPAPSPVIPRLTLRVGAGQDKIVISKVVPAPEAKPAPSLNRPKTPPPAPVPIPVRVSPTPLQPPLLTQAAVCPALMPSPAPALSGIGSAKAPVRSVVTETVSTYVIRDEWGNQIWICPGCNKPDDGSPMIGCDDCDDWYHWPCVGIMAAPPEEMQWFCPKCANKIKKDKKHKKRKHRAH

[2] = target: T2, TAF3;TRF3 (mouse?;mouse?, UniProt Q5HZG4;Q6SJ95 1-932;1-350, |)
T2 sequence 1: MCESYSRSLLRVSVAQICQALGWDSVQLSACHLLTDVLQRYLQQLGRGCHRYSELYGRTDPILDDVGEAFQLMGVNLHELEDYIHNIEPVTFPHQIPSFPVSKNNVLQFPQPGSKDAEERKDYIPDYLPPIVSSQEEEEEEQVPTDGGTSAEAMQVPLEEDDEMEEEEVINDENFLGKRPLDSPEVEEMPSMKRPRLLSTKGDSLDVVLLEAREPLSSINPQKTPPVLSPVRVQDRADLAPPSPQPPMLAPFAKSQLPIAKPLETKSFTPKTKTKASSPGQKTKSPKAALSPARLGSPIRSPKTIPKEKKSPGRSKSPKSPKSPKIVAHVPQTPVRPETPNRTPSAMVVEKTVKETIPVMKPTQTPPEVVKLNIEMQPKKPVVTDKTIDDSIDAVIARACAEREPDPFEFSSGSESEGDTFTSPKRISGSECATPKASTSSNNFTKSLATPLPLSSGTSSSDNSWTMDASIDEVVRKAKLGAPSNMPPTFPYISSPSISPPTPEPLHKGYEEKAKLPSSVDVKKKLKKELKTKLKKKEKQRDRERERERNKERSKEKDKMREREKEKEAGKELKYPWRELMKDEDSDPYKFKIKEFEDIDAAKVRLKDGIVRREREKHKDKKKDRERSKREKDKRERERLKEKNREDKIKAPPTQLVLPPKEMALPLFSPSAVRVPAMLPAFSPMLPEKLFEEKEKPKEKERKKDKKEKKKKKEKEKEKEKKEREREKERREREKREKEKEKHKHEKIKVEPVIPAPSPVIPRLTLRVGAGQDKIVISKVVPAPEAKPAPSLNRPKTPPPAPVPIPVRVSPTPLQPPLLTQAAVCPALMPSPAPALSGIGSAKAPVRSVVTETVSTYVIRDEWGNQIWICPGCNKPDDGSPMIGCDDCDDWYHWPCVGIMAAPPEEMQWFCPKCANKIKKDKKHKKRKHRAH
T2 sequence 2: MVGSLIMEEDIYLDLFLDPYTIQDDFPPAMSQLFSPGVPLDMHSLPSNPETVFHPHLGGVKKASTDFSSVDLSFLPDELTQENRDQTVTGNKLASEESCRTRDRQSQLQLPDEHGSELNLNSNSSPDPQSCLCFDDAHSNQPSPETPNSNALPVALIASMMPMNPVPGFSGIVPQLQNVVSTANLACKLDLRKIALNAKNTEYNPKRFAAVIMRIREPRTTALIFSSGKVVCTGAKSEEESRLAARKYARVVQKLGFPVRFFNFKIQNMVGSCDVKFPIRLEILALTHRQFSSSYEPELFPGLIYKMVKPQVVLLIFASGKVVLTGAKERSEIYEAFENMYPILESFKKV

[3] = target: T3, TRF3 (UniProt Q6SJ95 1-350)
T3 sequence: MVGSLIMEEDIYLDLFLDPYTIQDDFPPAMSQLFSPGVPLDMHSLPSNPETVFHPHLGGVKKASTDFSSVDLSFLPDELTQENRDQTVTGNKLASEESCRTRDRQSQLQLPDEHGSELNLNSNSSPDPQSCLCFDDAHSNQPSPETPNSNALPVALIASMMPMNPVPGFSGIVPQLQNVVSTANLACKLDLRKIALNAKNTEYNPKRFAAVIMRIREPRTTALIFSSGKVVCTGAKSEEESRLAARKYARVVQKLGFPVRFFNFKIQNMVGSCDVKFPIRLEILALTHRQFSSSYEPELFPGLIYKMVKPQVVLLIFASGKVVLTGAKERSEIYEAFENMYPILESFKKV

B1: Myogenin TATA probe / TATA competitor (dsDNA)
DNA 1: GAGGGTTTAAATGGCACCCAG
DNA 2: CTGGGTGCCATTTAAACCCTC
B1: no binding [1]; binds [2]; binds [3].
